Consider one substance from article PMC2742444.

The target in one experiment is SOS1 (UniProt Q07889). As to the kind of experiment: anti-FLAG IP, SRM mass spectrometry. As to conditions: reference: wild type, no EGF.
For the next experiment, the target named is VAV2 (UniProt P52735). As to the kind of experiment: anti-FLAG IP, SRM mass spectrometry. The settings on record: reference: wild type, no EGF.

For “EGFR (chimeric EGFR-FLAG-GFP) (from UniProt P00533) wild type, EGF 15 min”, the fold change with SOS1 came out at 1.91 fold; with VAV2, 1.4 fold.
